Target: NP wt (Influenza A virus H1N1 (A/WSN/33), UniProt P15682 1-498)
Assay: SPR
Conditions: protein: recombinant; tags: C-terminal 6xHis; label: 5'-biotin; single strand

UUUGUUACACACACACACGCUGUG (ssRNA) [Flu1 RNA 24-mer]
Kd: 41 ± 7 nM

— article PMC3260217
